Experiment [1] addresses OVA (aa257-264) peptide/H-2Kb complex, soluble (HRP tetramer or biotinylated complex on a streptavidin chip) (mouse) (UniProt P01901). In words: SPR (BIAcore 2000), biotinylated pMHCI on streptavidin chip, apparent KD.
For experiment [2] the target is unchanged. In words: SPR (BIAcore 2000), biotinylated pMHCI on streptavidin chip.
Experiment [3] deals with IL-15Rβγc receptors on 32Dβ cells (hIL-15Rβ and murine γC chains) (human; mouse) (UniProt P14784). In words: cell-based or functional assay.
For experiment [4], the target named is T1, IL-15Rβγc receptors on 32Dβ cells (hIL-15Rβ and murine γC chains) (human; mouse, UniProt P14784 27-551; P34902 23-369).
T1 sequence (looked up) 1: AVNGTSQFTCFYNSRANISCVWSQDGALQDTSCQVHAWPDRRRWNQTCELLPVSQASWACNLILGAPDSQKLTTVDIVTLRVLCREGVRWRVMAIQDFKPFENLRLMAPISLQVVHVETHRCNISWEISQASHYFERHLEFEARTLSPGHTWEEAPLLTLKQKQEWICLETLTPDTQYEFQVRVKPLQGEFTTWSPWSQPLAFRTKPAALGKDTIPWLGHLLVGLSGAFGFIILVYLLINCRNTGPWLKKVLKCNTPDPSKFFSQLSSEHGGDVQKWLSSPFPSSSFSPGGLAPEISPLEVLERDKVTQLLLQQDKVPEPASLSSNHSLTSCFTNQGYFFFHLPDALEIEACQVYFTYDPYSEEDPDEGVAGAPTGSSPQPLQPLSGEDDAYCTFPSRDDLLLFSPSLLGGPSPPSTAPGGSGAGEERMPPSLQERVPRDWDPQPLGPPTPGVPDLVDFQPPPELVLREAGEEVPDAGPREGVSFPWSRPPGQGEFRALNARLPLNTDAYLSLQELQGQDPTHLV
T1 sequence (looked up) 2: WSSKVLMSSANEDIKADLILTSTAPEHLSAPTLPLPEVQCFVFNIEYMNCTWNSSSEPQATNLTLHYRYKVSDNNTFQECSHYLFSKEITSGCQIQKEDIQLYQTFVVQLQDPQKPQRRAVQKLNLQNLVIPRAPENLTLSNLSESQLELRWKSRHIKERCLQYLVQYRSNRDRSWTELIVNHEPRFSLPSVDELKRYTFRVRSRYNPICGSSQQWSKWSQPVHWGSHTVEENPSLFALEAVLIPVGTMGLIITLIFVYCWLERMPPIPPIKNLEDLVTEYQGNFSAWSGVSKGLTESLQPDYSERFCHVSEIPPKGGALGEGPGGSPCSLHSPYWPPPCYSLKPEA
In words: cell-based or functional assay.

Sequence of OVA (aa257-264) peptide/H-2Kb complex, soluble (HRP tetramer or biotinylated complex on a streptavidin chip) (mouse) (P01901 22-305, one chain of several): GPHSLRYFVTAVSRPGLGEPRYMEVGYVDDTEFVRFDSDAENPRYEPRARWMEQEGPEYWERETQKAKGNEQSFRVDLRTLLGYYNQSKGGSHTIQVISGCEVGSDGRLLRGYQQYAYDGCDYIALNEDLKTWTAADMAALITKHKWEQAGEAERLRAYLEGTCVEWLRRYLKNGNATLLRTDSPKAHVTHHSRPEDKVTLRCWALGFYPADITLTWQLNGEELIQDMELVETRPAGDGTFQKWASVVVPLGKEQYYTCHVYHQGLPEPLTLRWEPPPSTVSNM

Take “OT1scTCR dimer (OT1scTCR/hIL-15:OT1scTCR/hIL-15RαSu/birA complex) (from UniProt P40933 49-162)”: the Kd in experiment [1] was 30000 nM. For “OT1scTCR/scCD8 heterodimer (OT1scTCR/hIL-15:scCD8/hIL-15RαSu/birA complex) (from UniProt P40933 49-162; P01731 28-196; P10300 22-175)”, the Kd in experiment [2] was 2600 nM. Take “c264scTCR dimer (c264scTCR/hIL-15:c264scTCR/hIL-15RαSu/birA complex) (from UniProt P40933 49-162)”: the EC50, 32Dβ cell proliferation in experiment [3] was determined as 0.3 nM.

As to “c264scTCR/hIL-15 fusion protein (from UniProt P40933 49-162)”, the EC50, 32Dβ cell proliferation in experiment [3] was determined as 0.3 nM.

B1: IL-15N72D:IL-15RαSu/Fc complex (Alt-803), co-expressed and purified (Fc fusion)
chain 1: PEAAGG
chain 2: PELLGG
For B1, the “EC50, 32Dβ cell proliferation” value in experiment [4] was 0.0156 nM.

B2: in vitro assembled IL-15N72D:IL-15RαSu/Fc complex (IL-15N72D:IL-15RαSu/Fc IVA) (Fc fusion)
chain 1: PEAAGG
chain 2: PELLGG
Take B2: the “EC50, 32Dβ cell proliferation” value in experiment [4] was determined as 0.0158 nM.
